Columns and labels:
[1] = target: T1, GST-fused full length SerRS (human, UniProt P49591 1-514); test: pull-down; GST-fusion proteins bound to beads incubated with 0.5 uM purified recombinant His6-tagged protein in 500 ul GST pulldown buffer (150 mM NaCl, 20 mM HEPES pH 7.9, 0.5 mM EDTA, 0.1% Triton X-100, 10% glycerol, 1 mM DTT) overnight at 4 °C; washed 5 times; western blot with anti-His or anti-GST; conditions: both partners purified
T1 construct: also called GST-SerRS FL; pGEX6P-1-SerRS

[2] = target: T2, purified His6-tagged SerRS (human, UniProt P49591 1-514); test: as above; conditions: both partners purified
T2 construct: also called recombinant SerRS; PET-20b-SerRS
T2 sequence (P49591 whole entry): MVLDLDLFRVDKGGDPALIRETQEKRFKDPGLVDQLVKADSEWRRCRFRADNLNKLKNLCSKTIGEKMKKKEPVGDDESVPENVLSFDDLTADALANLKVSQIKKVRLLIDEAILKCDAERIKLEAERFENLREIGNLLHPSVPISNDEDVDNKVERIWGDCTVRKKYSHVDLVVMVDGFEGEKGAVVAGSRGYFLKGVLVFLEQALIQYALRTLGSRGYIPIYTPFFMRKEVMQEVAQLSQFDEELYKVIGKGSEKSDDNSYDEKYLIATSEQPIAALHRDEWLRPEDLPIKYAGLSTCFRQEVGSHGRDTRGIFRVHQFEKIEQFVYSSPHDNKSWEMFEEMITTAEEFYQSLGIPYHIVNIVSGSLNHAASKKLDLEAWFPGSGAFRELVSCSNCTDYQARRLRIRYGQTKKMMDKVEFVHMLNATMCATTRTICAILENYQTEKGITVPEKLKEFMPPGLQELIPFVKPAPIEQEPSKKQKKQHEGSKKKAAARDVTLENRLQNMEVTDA

T1 sequence (P49591 whole entry, the tested form may be a part): as the sequence (P49591 whole entry) above

Binder	binding result [1]	binding result [2]
recombinant POT1 with a His6 tag at its C-terminal end (natural protein, human, UniProt Q9NUX5 1-634, looked up, also called His6-tagged POT1; pET-20b-POT1; not shown: His6, C-terminal, kept) MSLVPATNYIYTPLNQLKGGTIVNVYGVVKFFKPPYLSKGTDYCSVVTIVDQTNVKLTCLLFSGNYEALPIIYKNGDIVRFHRLKIQVYKKETQGITSSGFASLTFEGTLGAPIIPRTSSKYFNFTTEDHKMVEALRVWASTHMSPSWTLLKLCDVQPMQYFDLTCQLLGKAEVDGASFLLKVWDGTRTPFPSWRVLIQDLVLEGDLSHIHRLQNLTIDILVYDNHVHVARSLKVGSFLRIYSLHTKLQSMNSENQTMLSLEFHLHGGTSYGRGIRVLPESNSDVDQLKKDLESANLTANQHSDVICQSEPDDSFPSSGSVSLYEVERCQQLSATILTDHQYLERTPLCAILKQKAPQQYRIRAKLRSYKPRRLFQSVKLHCPKCHLLQEVPHEGDLDIIFQDGATKTPDVKLQNTSLYDSKIWTTKNQKGRKVAVHFVKNNGILPLSNECLLLIEGGTLSEICKLSNKFNSVIPVRSGHEDLELLDLSAPFLIQGTIHHYGCKQCSSLRSIQNLNSLVDKTSWIPSSVAEALGIVPLQYVFVMTFTLDDGTGVLEAYLMDSDKFFQIPASEVLMDDDLQKSVDMIMDMFCPPGIKIDAYPWLECFIKSYNVTNGTDNQICYQIFDTTVAEDVI	binds	
GST-fused full-length POT1 (natural protein, human, UniProt Q9NUX5 1-634, looked up, Held on beads in the GST pull-down; also called GST-POT1 FL; pGEX6P-1-POT1; not shown: GST, N-terminal, kept) MSLVPATNYIYTPLNQLKGGTIVNVYGVVKFFKPPYLSKGTDYCSVVTIVDQTNVKLTCLLFSGNYEALPIIYKNGDIVRFHRLKIQVYKKETQGITSSGFASLTFEGTLGAPIIPRTSSKYFNFTTEDHKMVEALRVWASTHMSPSWTLLKLCDVQPMQYFDLTCQLLGKAEVDGASFLLKVWDGTRTPFPSWRVLIQDLVLEGDLSHIHRLQNLTIDILVYDNHVHVARSLKVGSFLRIYSLHTKLQSMNSENQTMLSLEFHLHGGTSYGRGIRVLPESNSDVDQLKKDLESANLTANQHSDVICQSEPDDSFPSSGSVSLYEVERCQQLSATILTDHQYLERTPLCAILKQKAPQQYRIRAKLRSYKPRRLFQSVKLHCPKCHLLQEVPHEGDLDIIFQDGATKTPDVKLQNTSLYDSKIWTTKNQKGRKVAVHFVKNNGILPLSNECLLLIEGGTLSEICKLSNKFNSVIPVRSGHEDLELLDLSAPFLIQGTIHHYGCKQCSSLRSIQNLNSLVDKTSWIPSSVAEALGIVPLQYVFVMTFTLDDGTGVLEAYLMDSDKFFQIPASEVLMDDDLQKSVDMIMDMFCPPGIKIDAYPWLECFIKSYNVTNGTDNQICYQIFDTTVAEDVI		binds

Source: article PMC6882858, “Seryl tRNA synthetase cooperates with POT1 to regulate telomere length and cellular senescence” (Signal Transduction and Targeted Therapy, 2019)
